Assay results reported in paper PMC8349882 (Molecular cell, 2021).

Molecular target: the molecule itself
Experiment: crystal structure

B1: GLR3.4-S1S2 (isolated ligand-binding domain of GLR3.4) (domain or fragment, Arabidopsis thaliana)
chain: KPLRIGVPNRVSYTDYVSKDKNPPGVRGYCIDVFEAAIELLPYPVPRTYILYGDGKRNPSYDNLVNEVVADNFDVAVGDITIVTNRTRYVDFTQPFIESGLVVVAPVKEAGTIEGIDSLVTSNEPIGVQDGTFARNYLINELNILPSRIVPLKDEEQYLSALQRGPNAGGVAAIVDELPYIEVLLTNSNCKFRTVGQEFTRTGWGFAFQRDSPLAVDMSTAILQLSEEGELEKIHRKWLNYKHECS
- stoichiometry N: 2
